In patent US20150078996A1 (Merck Sharp & Dohme, published 2015):

Assays:
[1] = biological target: IGF-IR expressed on baculovirus-infected Sf9 insect cells (UniProt P08069); assay: flow cytometry on Sf9 cells expressing IGF-IR
[2] = biological target: IR (insulin receptor) expressed on baculovirus-infected Sf9 insect cells (UniProt P06213); assay: flow cytometry on Sf9 cells expressing IR
[3] = biological target: IR (insulin receptor) expressed on baculovirus-infected Sf9 insect cells (UniProt P06213); assay: flow cytometry on Sf9 cells expressing IR, secondary antibody alone
[4] = biological target: IGF-IR expressed on baculovirus-infected Sf9 insect cells (UniProt P08069); assay: flow cytometry on Sf9 cells expressing IGF-IR, secondary antibody alone
[5] = biological target: T1, IGF-IR expressed on baculovirus-infected Sf9 insect cells (UniProt P08069 31-1367, limits assumed); assay: flow cytometry on Sf9 cells expressing IGF-IR
T1 construct: whole, on cells; also called IGF-1R + cells

[6] = biological target: T2, IR (insulin receptor) expressed on baculovirus-infected Sf9 insect cells (UniProt P06213 28-1382, limits assumed); assay: flow cytometry on Sf9 cells expressing IR
T2 construct: whole, on cells; also called IR + cells

[7] = biological target: T2, IR (insulin receptor) expressed on …; assay: flow cytometry on Sf9 cells expressing IR; remark: listed apart in the source
Source text: At this stage of the selection process, only hybridomas secreting monoclonal antibodies that recognized both the recombinant and the native receptors were selected, cloned, produced and then purified before being tested by FACScan analysis, according to the method described above, on Sf9 insect cells expressing either IGF-IR or IR in order to eliminate hybridomas recognizing both the two receptors.

[8] = biological target: T3, recombinant human insulin receptor (IR) extracellular domains (R&D Systems) (human, UniProt P06213-2 28-944, limits assumed); assay: western blot after SDS-PAGE, 12B1 as probe
T3 construct: extracellular domain; also called IR ECD
Description: Proteins were analyzed by SDS-PAGE electrophoresis on Criterion 7% homogeneous polyacrylamide gels (BioRad, Marnes la Coquette, France) under reducing and non-reducing conditions. Equivalent quantities of 4, 20 and 100 ng were loaded for pure recombinant IR and IGF-1R ECD whereas higher protein quantities, from 0.2 to 6 μg, were needed for membrane extracts to detect IGF-1R by western blot. Proteins were transferred onto nitrocellulose membrane. […] Proteins were further detected by chemiluminescence (ECL, Amersham Biosciences, Orsay, France) after incubation with a horseradish peroxidase-conjugated anti-mouse IgG polyclonal antibody (Amersham Biosciences, 1:3,000 dilution) for 1 h at room temperature and extensive washes.

[9] = biological target: recombinant human IGF-1R extracellular domains (R&D Systems) (human) (UniProt P08069); assay: SPR Biacore X, 5 min injection of 7.4 µg/ml over 439 RU of amine-coupled soluble IGF-1R
[10] = biological target: recombinant human IGF-1R extracellular domains (R&D Systems) (human) (UniProt P08069); assay: SPR Biacore X, 5 min injection of 8.24 µg/ml over 439 RU of amine-coupled soluble IGF-1R
[11] = biological target: full length hIGF-1R from membrane extracts of NIH 3T3 cells overexpressing IGF-1R (human) (UniProt P08069); assay: displacement of 125I-IGF-1 from hIGF-1R captured on FlashPlate

Q: “commercially available anti-IGF-1R antibody αIR3” was tested. Which MFI [1] did it give?
A: 35

Q: What about the MFI [2] of the same molecule?
A: 32

Q: With “secondary anti-species antibody coupled to a fluorochrome (Anti-Mouse FITC)” as the molecule, how does the MFI [3] read?
A: 13

Q: What about the MFI [4] of the same molecule?
A: 9

B1: monoclonal antibody 2D10 (antibody, V domains shown)
VH: EVNLVESGGILVKPGGSLRLSCAASGFTFSNYAMSWVRQTPEKRLEWVASIGSAGYIHYPDSVKGRFTISRDNARNILYLQMSSLRSEDTAMYYCAREGGLVWFAYWGQGTLVTVSA
VL: ETTVTQSPASLSVATGEKVTIRCITSTDIDDDMNWYQQKPGEPPKLLISEGNTLRPGVPSRFSSSGYGTDFVLTIENTLSEDVADYYCLQSDKMPLTFGAGTKLELK
Q: For B1, which MFI [5] is on record?
A: 42.5

Q: And the MFI [6]?
A: 10.6

B2: mouse monoclonal antibody 12B1 (anti-IGF-1R) (antibody, mouse IgG1, V domains shown)
VH: QVQLKESGPDLVAPSQSLSITCTVSGFSLTNYGVHWVRQFPGKGLEWLGVIWAGGNTNYNSALMSRLTISKDNSKSQVFLKMNSLQTDDTAVYYCAREYGSTYVAWFAHWGQGTLVTVSS
VL: ENVLTQSPAIMSASPGEKVTMTCGASSSVSSSFLHWYQQKSGASPKLWIYSTSNLASGVPTRFSGSGSGTSYSLTISSVEAEDAATYYCQQYSGYPLTFGAGTKLELK
notes: also called MAb 12B1; clone 12B1
Q: Does B2 bind [7]?
A: no binding

Q: What about the MFI [5] of the same molecule?
A: 54

Q: What about the MFI [6] of the same molecule?
A: 10.5

Q: Does B2 bind [8]?
A: no binding (tested: 100 ng per lane)

Q: What about the response (RU) [9] of the same molecule?
A: 146 RU

B3: mouse monoclonal antibody 7C10 (anti-IGF-1R) (antibody, from another filing, V domains shown)
VH: DVQLQESGPGLVKPSQSLSLTCSVTGYSITGGYLWNWIRQFPGNKLEWMGYISYDGTNNYKPSLKDRISITRDTSKNQFFLKLNSVTNEDTATYYCARYGRVFFDYWGQGTTLTVSS
VL: DVLMTQIPLSLPVSLGDQASISCRSSQSIVHSNGNTYLQWYLQKPGQSPKLLIYKVSNRLYGVPDRFSGSGSGTDFTLKISSVEAEDLGVYYCFQGSHVPWTFGGGTKLEIK
Q: Which results are given for B3?
A: response (RU) [10]: 180 RU; IC50 [11]: 200 pM

B4: monoclonal antibody 12D5 (antibody, V domains shown)
VH: QVQLKESGPGLVAPSQSLSITCTVSGFSLNEYGVSWIRQPPGKGLEWLGVIWGGRDTYYHSPLKSRLSITKDNSKSQVFLKMNSLQTDDTAMYYCAKHEGMDYWGQGTSVTVSS
VL: DIVMTQSQKFMSTSVGDRVSVTCKASQNVVTNVAWYQHKPGHSPKPLIYSASYRYSGVPDRFTGSGSGTDFTLTINNVQSEDLAEYFCHQYNNFPLTFGAGTKLELK
Q: What does the source list for B4?
A: MFI [5]: 50; MFI [6]: 10.6
